Measured values: patent US20240052064A1 (Bristol-Myers Squibb, published 2024)

Columns and labels:
[1] = biological target: T1, Human CD3ED, TPP401 (human, UniProt P07766 23-126; P04234 22-105); test: SPR (Biacore T200), single-cycle kinetics, antibody captured on anti-human IgG, antigen injected; sensorgram of sample stored at pH 4, 40 C compared with the non-stressed standard
T1 construct: 'CD3ED' is read here as the CD3 epsilon/delta pair; also called Antigen 2
Method: (§1) SPR experiments were performed using a Biacore T200 system (GE Healthcare, Uppsala, Sweden) with analysis and sample compartment temperatures set at 25° C. and 7° C. respectively.
(§2) Anti-Human IgG (from anti-human IgG Capture Kit) was amine coupled to the surface of a CM5 chip according to the manufacturer's instructions. Molecule bispecific antibodies diluted to 1 μg/mL in running buffer were captured on the chip surface in a 60 s injection. Following the single-cycle kinetics procedure, antigen was next injected five times (30 s per injection) at incrementally increasing concentrations at a flow rate of 30 μL/min. Antigen concentrations ranged from 0.08 to 50 nM for BCMA and between 12.7 to 1000 nM for CD3. A 300 s dissociation time was added after the last antigen injection. Following each experiment, all flow cells were regenerated using a 30 s injection of 3M MgCl₂.
(§3) Prior to analysis, data were double referenced by first subtracting data from a reference flow cell and then subtracting a blank cycle where buffer was injected instead of antigen. The sensorgram comparison analysis was implemented using a Biacore T200 (software version 3.0). All data were normalized with respect to the response where 100% reflects the maximum binding obtained during injection and 0% reflects the baseline. Average and ±3 standard deviation (SD) sensorgrams were calculated from ten or more independent sensorgrams of each molecule's non-stressed material (standard). For quantitation of binding similarities of the stressed samples against the corresponding non-stressed standard, sample sensorgrams were co-evaluated with the sensorgrams of the standard. The degree of similarity was calculated based on how many sample data points fell inside or outside the ±3 standard deviation limits according to Equation 2, where SSQ is the sum of squares (Karlsson, R, Pol, E., and Frostell, A. (2016); Analytical Biochemistry 502, 53-63).

[2] = biological target: T2, Human BCMA, TPP208 (human, UniProt Q02223 1-54, limits assumed); test: as above
T2 construct: also called Antigen 1
T2 sequence (looked up): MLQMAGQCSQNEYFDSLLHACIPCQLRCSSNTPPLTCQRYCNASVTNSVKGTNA
Method: as §1, §2, §3

[3] = biological target: T3, BCMA (human, UniProt Q02223 1-54, limits assumed)
T3 construct: also called B cell maturation antigen; TNFRSF17
T3 sequence (looked up): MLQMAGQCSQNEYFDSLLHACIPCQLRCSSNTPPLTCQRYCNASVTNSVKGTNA

[4] = biological target: T1, Human CD3ED, TPP401; test: SPR (Biacore T200), single-cycle kinetics, antibody captured on anti-human IgG, antigen injected; sensorgram of sample stored at pH 6 with tert-butyl peroxide, 40 C compared with the non-stressed standard
Method: as §1, §2, §3

[5] = biological target: T2, Human BCMA, TPP208; test: as above
Method: as §1, §2, §3

[6] = biological target: T4, BCMA on cells (JEKO cells, plasmablasts) (human, UniProt Q02223 1-184); test: cell-based or functional assay
T4 sequence (looked up): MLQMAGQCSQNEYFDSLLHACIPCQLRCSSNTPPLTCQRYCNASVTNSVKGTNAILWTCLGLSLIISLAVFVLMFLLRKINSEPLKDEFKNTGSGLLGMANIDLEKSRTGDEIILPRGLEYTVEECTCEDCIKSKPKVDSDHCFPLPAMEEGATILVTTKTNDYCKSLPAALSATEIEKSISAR

[7] = biological target: T4, BCMA on cells (JEKO cells, plasmablasts); test: cell-based or functional assay; remark: listed apart in the source
[8] = biological target: T1, Human CD3ED, TPP401; test: SPR (Biacore T200), single-cycle kinetics, antibody captured on anti-human IgG, antigen injected; sensorgram of sample stored at pH 6, 40 C compared with the non-stressed standard
Method: as §1, §2, §3

[9] = biological target: T2, Human BCMA, TPP208; test: as above
Method: as §1, §2, §3

[10] = biological target: T1, Human CD3ED, TPP401; test: SPR (Biacore T200), single-cycle kinetics, antibody captured on anti-human IgG, antigen injected; sensorgram of sample stored at pH 8, 40 C compared with the non-stressed standard
Method: as §1, §2, §3

[11] = biological target: T2, Human BCMA, TPP208; test: as above
Method: as §1, §2, §3

[12] = biological target: T4, BCMA on cells (JEKO cells, plasmablasts); test: cell-based or functional assay; remark: listed apart in the source

T1 sequence (P07766 23-126, chain 1 of 2): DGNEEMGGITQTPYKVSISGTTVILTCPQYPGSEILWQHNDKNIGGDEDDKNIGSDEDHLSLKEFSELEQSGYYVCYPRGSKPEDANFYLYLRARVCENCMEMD
T1 sequence (P04234 22-105, chain 2 of 2): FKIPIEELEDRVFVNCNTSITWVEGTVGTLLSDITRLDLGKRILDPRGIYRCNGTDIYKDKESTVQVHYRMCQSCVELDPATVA

B1: Mab102 (bispecific antibody, human IgG1, L234A L235A)
heavy 1: EVQLLESGGGLVQPGGSLRLSCAASGFTFSDNAMGWVRQAPGKGLEWVSAISGPGSSTYYADSVKGRFTISRDNSKNTLYLQMNSLRAEDTAVYYCAKVLGWFDYWGQGTLVTVSSASTKGPSVFPLAPSSKSTSGGTAWLGCEVTDYFPEPVTVSWNSGALTSGVHTFPAVLESSGLYSLSSVVTVPSSSLGTQTYICNVNHKPSNTKVDKKVEPKSCDKTHTCPPCPAPEAAGGPSVFLFPPKPKDTLMISRTPEVTCVVVDVSHEDPEVKFNWYVDGVEVHNAKTKPREEQYNSTYRVVSVLTVLHQDWLNGKEYKCKVSNKALGAPIEKTISKAKGQPREPQVYVYPPSREEMTKNQVSLTCLVKGFYPSDIAVEWESNGQPENNYKTTPPVLDSDGSFALVSKLTVDKSRWQQGNVFSCSVMHEALHNHYTQKSLSLSPG
heavy 2: EVQLLESGGGLVQPGGSLRLSCAASGFTFSDNAMGWVRQAPGKGLEWVSAISGPGSSTYYADSVKGRFTISRDNSKNTLYLQMNSLRAEDTAVYYCAKVLGWFDYWGQGTLVTVSSASTKGPSVFPLAPSSKSTSGGTAWLGCEVTDYFPEPVTVSWNSGALTSGVHTFPAVLESSGLYSLSSVVTVPSSSLGTQTYICNVNHKPSNTKVDKKVEPKSCDGGGGSGGGGSQAVVTQEPSLTVSPGGTVTLTCGSSTGAVTTSNYANWVQEKPGQAFRGLIGGTNKRAPGTPARFSGSLLGGKAALTLSGAQPEDEAEYYCALWYSNLWVFGGGTKLTVLSSASTKGPSVFPLAPSSKSTSGGTAALGCLVKDYFPEPVTVSWNSGALTSGVHTFPAVLQSSGLYSLSSVVTVPSSSLGTQTYICNVNHKPSNTKVDKKVEPKSCDKTHTCPPCPAPEAAGGPSVFLFPPKPKDTLMISRTPEVTCVVVDVSHEDPEVKFNWYVDGVEVHNAKTKPREEQYNSTYRVVSVLTVLHQDWLNGKEYKCKVSNKALGAPIEKTISKAKGQPREPQVYVLPPSREEMTKNQVSLLCLVKGFYPSDIAVEWESNGQPENNYLTWPPVLDSDGSFFLYSKLTVDKSRWQQGNVFSCSVMHEALHNHYTQKSLSLSPG
light 1: EIVLTQSPGTLSLSPGERATLSCRASQSVSSYYLAWYQQKPGQAPRLLISGAGSRATGIPDRFSGSGSGTDFTLTISRLEPEDFAVYYCQQYGYPPDFTFGQGTKVEIKRTVAAPSVAIFPPSDERLKSGTASVVCVLNNFYPREAKVQWKVDNALQSGNSQESVTEQDSKDSTYSLSSRLTLSKADYEKHKVYACEVTHQGLSSPVTKSFNRGEC
light 2: EVQLLESGGGLVQPGGSLRLSCAASGFTFSTYAMNWVRQAPGKGLEWVSRIRSKYNNYATYYADSVKGRFTISRDDSKNTLYLQMNSLRAEDTAVYYCVRHGNFGNSYVSWFAYWGQGTLVTVSSASVAAPSVFIFPPSDEQLKSGTASVVCLLNNFYPREAKVQWKVDNALQSGNSQESVTEQDSKDSTYSLSSTLTLSKADYEKHKVYACEVTHQGLSSPVTKSFNRGEC
notes: also called BCMA TCE; BCMA T cell engager
pH 4 SPR % similarity-CD3 [1]: 100%
pH 4 SPR % similarity-BCMA [2]: 100%
Kd [3]: 60 pM
pH 6-TBP SPR % similarity-CD3 [4]: 72.3%
pH 6-TBP SPR % similarity-BCMA [5]: 54%
EC50 PB killing (nM), AAV-1 (n = 1) [6]: 0.003 nM
EC50 PB killing (nM), healthy volunteers (n = 3) [6]: 0.007 nM
EC50 for BM plasmablast killing (nM), bone marrow mononuclear cells, 24 h [7]: 0.00281 nM
pH 6 SPR % similarity-CD3 [8]: 100%
pH 6 SPR % similarity-BCMA [9]: 99.4%
pH 8 SPR % similarity-CD3 [10]: 70.1%
pH 8 SPR % similarity-BCMA [11]: 95.7%
EC50 for JEKO cell killing (nM), T cell-mediated, annexin V, 20 h, T:E 1:2 [12]: 0.12 nM
